Results on one molecule are retold here after patent US20240401082A1 (Sanofi, published 2024).

Assay [1] has as its target T1, human complement C1s enzyme (activated C1s) (human, UniProt P09871 16-437; P09871 438-688).
T1 sequence 1: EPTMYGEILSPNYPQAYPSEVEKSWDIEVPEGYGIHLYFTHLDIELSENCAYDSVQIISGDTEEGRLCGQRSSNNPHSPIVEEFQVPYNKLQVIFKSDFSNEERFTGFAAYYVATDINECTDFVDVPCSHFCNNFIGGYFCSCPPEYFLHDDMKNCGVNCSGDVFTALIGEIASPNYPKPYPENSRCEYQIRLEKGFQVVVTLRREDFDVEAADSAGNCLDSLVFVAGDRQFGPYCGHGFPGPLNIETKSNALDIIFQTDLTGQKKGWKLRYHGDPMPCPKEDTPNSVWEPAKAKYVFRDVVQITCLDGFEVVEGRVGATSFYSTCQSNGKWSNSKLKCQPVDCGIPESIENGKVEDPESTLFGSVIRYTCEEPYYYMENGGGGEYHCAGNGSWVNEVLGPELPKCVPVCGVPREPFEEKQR
T1 sequence 2: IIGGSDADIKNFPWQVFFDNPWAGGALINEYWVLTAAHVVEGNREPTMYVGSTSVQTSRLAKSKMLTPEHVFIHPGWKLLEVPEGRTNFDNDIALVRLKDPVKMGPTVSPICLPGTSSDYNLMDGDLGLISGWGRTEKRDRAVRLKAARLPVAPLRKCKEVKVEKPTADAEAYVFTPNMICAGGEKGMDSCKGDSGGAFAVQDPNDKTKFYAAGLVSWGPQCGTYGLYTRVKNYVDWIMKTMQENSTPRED
As to the kind of experiment: cell-based or functional assay.

Assay [2] concerns the target T1, human complement C1s enzyme (activated …). Put plainly: SPR, purified protein. (In general: In SPR one partner is held on a chip, and binding of the other changes the refractive index at the surface.)
The target is the same in assay [3]. As to the kind of experiment: cell-based or functional assay. The source holds these as a separate data set.
For assay [4] the target is unchanged. As to the kind of experiment: cell-based or functional assay. This is another data set of the same source.
For assay [5] the target is unchanged. Put plainly: cell-based or functional assay. The source holds these as a separate data set.
Assay [6] has the same target. Put plainly: cell-based or functional assay. This is another data set of the same source.
For assay [7] the target is unchanged. Put plainly: cell-based or functional assay. This is another data set of the same source.
Assay [8] concerns the target cynomolgus C1s (cynomolgus). Put plainly: method not given.
The target of assay [9] is T1, human complement C1s enzyme (activated …). Put plainly: method not given.
For assay [10] the target is unchanged. As to the kind of experiment: BLI (Octet), biotinylated target on streptavidin sensor. For orientation: BLI is a label-free optical method that tracks binding on a fibre tip over time.
Assay [11] has the same target. Put plainly: BLI (Octet), biotinylated target on streptavidin sensor; protein purified to >98%. An excerpt: (§1) Bio-layer interferometry (BLI) was used to assess the recombinant proteins' target engagement to and binding affinity for complement C1s enzyme (active C1s or “C1s” herein) and factor Bb (Bb) (Complement Technology, Tyler, TX, USA). C1s and Bb were biotinylated with EZ-Link™ Sulfo-NHS-LC-LC-Biotin (Thermo Fisher, Waltham, MA, USA) according to manufacturer instructions. Biotinylated C1s or Bb was loaded on Octet® Streptavidin (SA) Biosensors (Sartorius, Göttingen, Germany), followed by a concentration range of purified proteins. To assess dual target engagement, biotinylated active C1s or Bb was loaded onto sensors, followed by purified proteins (“first association phase”), followed by the non-captured complement target (Bb or active C1s, non-biotinylated; “second association phase”). The assays were performed at 30° C. using PBS with 0.1% Tween 20 as a diluent (FIG. 3).

Assay [12] has the same target. As to the kind of experiment: BLI (Octet), biotinylated target on streptavidin sensor; mixture of the two scFabs from construct #9.
Description: as §1

For assay [13] the target is unchanged. As to the kind of experiment: BLI (Octet), biotinylated target on streptavidin sensor; partially purified mixture of the two scFabs from construct #9.
Description: as §1
The third expression construct, construct #9 (FIGS. 2B and 21), is composed of a bidirectional minCBA promoter driving expression of separate transcripts encoding human codon-optimized αBb scFab or αC1s scFab [αC1s scFab+αBb scFab], each followed by a bGH poly (A) signal.

Assay [14] shares this target. As to the kind of experiment: BLI (Octet), biotinylated target on streptavidin sensor; mixture of the two scFabs from construct #9; mixture of the two scFabs from construct #9.

B1: anti-C1s scFab (construct #2) (Fab)
chain: DIVLTQSPDSLAVSLGERATISCKASQSVDYDGDSYMNWYQQKPGQPPKILIYDASNLESGIPARFSGSGSGTDFTLTISSLEPEDFAIYYCQQSNEDPWTFGGGTKVEIKRTVAAPSVFIFPPSDEQLKSGTASVVCLLNNFYPREAKVQWKVDNALQSGNSQESVTEQDSKDSTYSLSSTLTLSKADYEKHKVYACEVTHQGLSSPVTKSFNRGECGGGGSGGGGSGGGGSGGGGSGGGGSGGGGSGGGGSQVQLVQSGAEVKKPGASVKLSCTASGFNIKDDYIHWVKQAPGQGLEWIGRIDPADGHTKYAPKFQVKVTITADTSTSTAYLELSSLRSEDTAVYYCARYGYGREVFDYWGQGTTVTVSSASTKGPSVFPLAPCSRSTSESTAALGCLVKDYFPEPVTVSWNSGALTSGVHTFPAVLQSSGLYSLSSVVTVPSSSLGTKTYTCNVDHKPSNTKVDKRV
notes: Single-chain Fab: LC-(G4S)7-HC (VH-CH1); there it stood in a mixture with the anti-Bb scFab; also called αC1s scFab; Purified anti-C1s scFab
By Kd is commonly meant the free concentration of one partner at which half of the binding sites on the other are occupied at equilibrium, for simple one-to-one binding. One may read the koff as a measure of how fast the partners let go of each other. Usually kon stands for the rate constant with which the complex forms. As for B1, the “Wieslab CP IC50 of #9-derived fragments, fold of purified anti-C1s Fab” value in assay [1] was ~25 fold. Further, the Kd turned out to be 0.3 nM in assay [2]; 0.016 nM in [8]; 0.34 nM in assay [9]; 0.3 nM in assay [10]; 0.3 nM in assay [11]; 1.8 nM in assay [13]. Further, in [14], the Kd amounted to 1.9 nM. The “Wieslab classical pathway IC50” value in assay [3] was determined as 6.7 nM. The “CP IC50 (Wieslab), mixture of scFabs from construct #9” value in assay [4] worked out at 157 nM. Besides, the “IC50 CP Wieslab EIA” value in assay [5] worked out at 7.2 nM. Besides, the “IC50 CP (Wieslab)” value in assay [6] turned out to be 7.2 nM. For the same molecule, in [6], the “IC50 CP (Wieslab), mixture of scFabs from construct #9” value came out at 157 nM. In [7], the “IC50 (nM), complement activation with CP and AP activated simultaneously in vitro” value stood at 97.3 nM. Moreover, the koff in assay [12] is 0.00028 s⁻¹. Also, the kon in assay [12] was found to be 150000 M⁻¹ s⁻¹.
